In patent publication US20100298225A1, “PEPTIDE GAP JUNCTION MODULATORS” (priority 2007, published 2010):
Entries after “also recorded” stand apart in the source; their conditions may differ.

Columns and labels:
[1] = molecular target: T1, carboxyl terminal domain (CT) of Cx43 (Rattus norvegicus, UniProt P08050); experiment: Peptide binding to Cx43CT determined using surface plasmon resonance (SPR); conditions: for SPR respons: immobilised recombinant Cx43CT; for SPR data normalised on Mw: value = (SPRrespons*100)/Mw
T1 construct: GST (N, cleaved yes); made in house; host or cells: E. coli BL-21
T1 sequence (P08050 255-382): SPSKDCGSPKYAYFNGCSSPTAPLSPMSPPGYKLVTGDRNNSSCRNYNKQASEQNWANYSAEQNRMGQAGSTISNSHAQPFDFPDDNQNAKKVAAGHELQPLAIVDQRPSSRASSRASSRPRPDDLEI
Experimental: 277(39):36706-36714 (2002), which is hereby incorporated by reference in its entirety. Briefly, cDNA derived from rat Cx43 was inserted into pGEX-6P-2 (Amersham) and expressed in E. coli (BL-21). The resultant GST-fusion protein was cleaved from the GST PreScission Protease® (Amersham Biosciences). The recombinant product after cleavage contained the sequence 255-382 of rCx43 preceded by four additional amino acids (GPLG). Protein concentration was measured using the Bio-Rad DC Protein Assay. Protein purity was assessed by SDS-PAGE.
Recombinant Cx43CT was covalently bound to a carboxylmethyl dextran matrix (Salamon et al., “Surface Plasmon Resonance Spectroscopy as a Tool for Investigating the Biochemical and Biophysical Properties of Membrane Protein Systems. II: Applications to Biological Systems,” Biochim. Biophys. Acta 1331(2):131-152 (1997), which is hereby incorporated by reference in its entirety). Specific peptides were presented and, when feasible, dissociation constants (KD) were calculated from the time course of binding and unbinding of the ligand, using a 1:1 (Langmuir) association and dissociation kinetic model (Biacore software package). In both phases (association and dissociation), the first 5-8 seconds of recording were not included in the fit, to avoid artifacts resulting from peptide distribution within the flow cells (Lang et al., “Surface Plasmon Resonance as a Method to Study the Kinetics and Amplitude of Protein-protein Binding,” in PRACTICAL METHODS IN CARDIOVASCULAR RESEARCH 936-947 (Stefan Dhein, Friedrich Wilhelm Mohr & Mario Delmar eds., 2005), which is hereby incorporated by reference in its entirety).
The peptides shown in table 2 and 3 were tested for binding to the carboxyl terminal domain (CT) of Cx43 using Surface Plasmon Resonance (“SPR”). SPR is a method that was used to identify the original RXPE sequence (Shibayama et al., “Identification of a Novel Peptide that Interferes with the Chemical Regulation of Connexin-43,” Circ. Res. 98:1365-72 (2006)). The amplitude of the response is also a function of the mass of the ligate, and the normalized data according to the individual peptide Mw's are shown in table 3.

[2] = molecular target: T2, Cx43-expressing N2a cells (Rattus norvegicus, UniProt P08050); experiment: Dual patch clamp: octanol-induced uncoupling, junctional conductance between cell pairs; assay type: cell-based; conditions: for Ability to re-open gap junctions closed by the uncoupler (revert uncoupled cells to coupled) / Effect on octanol-induced uncoupling: 0.1 mM peptide in internal pipette solution, octanol superfusion; for Effect on octanol-induced uncoupling: Vj 60 mV; for Average junctional conductance (Gj) as a function of time after onset of octanol: 0.1 mM peptide in pipette, Gj relative to value before octanol, N=7 pairs; for Decrease in Gj three minutes after onset of octanol: junctional current traces of a cell pair, peptide in internal pipette solution; for Cell pairs that remained coupled / uncoupled following onset of octanol superfusion: seven cell pairs, peptide in pipette, uncoupling = zero junctional current at 60-mV pulse
T2 construct: expressed in transfected cells; host or cells: N2a (neuroblastoma) cells
T2 sequence (P08050 whole entry, the tested form may be a part): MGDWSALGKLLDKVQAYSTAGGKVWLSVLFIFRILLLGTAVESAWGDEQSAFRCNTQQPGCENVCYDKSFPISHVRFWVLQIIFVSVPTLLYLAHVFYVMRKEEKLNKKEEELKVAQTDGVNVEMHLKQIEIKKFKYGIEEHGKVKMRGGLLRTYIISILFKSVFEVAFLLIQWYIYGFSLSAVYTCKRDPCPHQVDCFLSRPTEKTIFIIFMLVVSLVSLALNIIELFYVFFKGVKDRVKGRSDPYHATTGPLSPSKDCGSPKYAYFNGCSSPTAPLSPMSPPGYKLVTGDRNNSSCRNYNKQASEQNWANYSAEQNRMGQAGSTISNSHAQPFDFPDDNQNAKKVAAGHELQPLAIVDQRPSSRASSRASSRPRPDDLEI
Experimental: Experiments were conducted on N2a (Neuroblastoma) cells. Cx43 was expressed either in a lac-switch stable system (induced by 0.1-1.0 mM of IPTG (Zhong et al., “LacSwitch II Regulation of Connexin43 cDNA Expression Enables Gap-junction Single-channel Analysis,” Biotechniques 34(5):1034-1034, 1041-1044, 1046 (2003), which is hereby incorporated by reference in its entirety)) or transiently using an IRES plasmid coding for eGFP (Seki et al., “Modifications in the Biophysical Properties of Connexin43 Channels by a Peptide of the Cytoplasmic Loop Region,” Circ. Res. 95(4):e22-e28 (2004); Seki et al., “Loss of Electrical Communication, but Not Plaque Formation, After Mutations in the Cytoplasmic Loop of Connexin43,” Heart Rhythm. 1(2):227-233 (2004), which are hereby incorporated by reference in their entirety). M257 (a mutant of Cx43 truncated at amino acid 257 (Morley et al., “Intramolecular Interactions Mediate pH Regulation of Connexin43 Channels,” Biophys. J. 70(3):1294-1302 (1996), which is hereby incorporated by reference in its entirety)) was transiently expressed in N2a cells also using an eGFP-containing IRES plasmid. Cells were placed on the stage of an inverted microscope equipped for epifluorescence (Nikon Diaphoto200, Filter: 520 to 560 nm). Junctional current (I) was recorded from eGFP-positive cell pairs in a dual-whole-cell voltage clamp configuration (holding potentials: −40 mV; transjuctional voltage, Vj, +[…]; step duration, 10-30 seconds). Patch pipettes were filled with a cesium-containing solution (Seki et al., “Modifications in the Biophysical Properties of Connexin43 Channels by a Peptide of the Cytoplasmic Loop Region,” Circ. Res. 95(4):e22-e28 (2004); Seki et al., “Loss of Electrical Communication, but Not Plaque Formation, After Mutations in the Cytoplasmic Loop of Connexin43,” Heart Rhythm. 1(2):227-233 (2004), which are hereby incorporated by reference in their entirety). For the low pH experiments, HEPES was replaced by MES (10 mM). Pipette resistance was 4.0-6.0MΩ. Synthetic peptides were diluted in the pipette solution to a final concentration of 0.1 mM. During recording, cells were kept at room temperature in a cesium-containing solution (Seki et al., “Modifications in the Biophysical Properties of Connexin43 Channels by a Peptide of the Cytoplasmic Loop Region,” Circ. Res. 95(4):e22-e28 (2004); Seki et al., “Loss of Electrical Communication, but Not Plaque Formation, After Mutations in the Cytoplasmic Loop of Connexin43,” Heart Rhythm. 1(2):227-233 (2004), which are hereby incorporated by reference in their entirety). For some experiments, octanol (2.0 mM) was superfused during recording. Data acquisition and recording, and criteria for single channel detection were as reported in Seki et al., “Modifications in the Biophysical Properties of Connexin43 Channels by a Peptide of the Cytoplasmic Loop Region,” Circ. Res. 95(4):e22-e28 (2004) and Seki et al., “Loss of Electrical Communication, but Not Plaque Formation, After Mutations in the Cytoplasmic Loop of Connexin43,” Heart Rhythm. 1(2):227-233 (2004), which are hereby incorporated by reference in their entirety.
Compounds were tested for their ability to interfere with octanol-induced uncoupling. Compounds are tested for their ability to interfere with acidification induces uncoupling.
Experiments were modeled after those described in Shibayama et al (2006). Junctional conductance between Cx43-expressing N2a cell pairs was assessed using conventional dual patch clamp. Peptides were diluted in the patch pipette solution and the cells will be exposed either to octanol or to a low intracellular pH. Control experiments were carried out in the absence of the compound. The results are shown in FIGS. 3A-E, which are graphs of the time course of octanol-induced changes in coupling recorded from Cx43-expressing N2a cells. FIGS. 3A-E relate to peptides 2517, 2518, 2529, 2520 and 2624 respectively. […]

| Substance | SPR respons ([1]; peptide 25 uM) | SPR respons ([1]; peptide 100 uM) | SPR respons ([1]; peptide 250 uM) | SPR respons ([1]; peptide 500 uM) | SPR respons ([1]; peptide 1 mM) | Ability to re-open gap junctions closed by the uncoupler (revert uncoupled cells to coupled) [2] | Effect on octanol-induced uncoupling [2] | Average junctional conductance (Gj) as a function of time after onset of octanol [2] | Decrease in Gj three minutes after onset of octanol [2] | Cell pairs that remained coupled / uncoupled following onset of octanol superfusion [2] | SPR data normalised on Mw ([1]; peptide 500 uM) | SPR data normalised on Mw ([1]; peptide 1 mM) |
| --- | --- | --- | --- | --- | --- | --- | --- | --- | --- | --- | --- | --- |
| Ac-Arg-Arg-Asn-Tyr-Ala-Val-Pro-Phe-Arg-Arg-Asn-Tyr-NH2 (Ac-RRNYAVPFRRNY-NH2) [Compound 2511] | 16.2 arbitrary units | 90.5 arbitrary units | 214.2 arbitrary units | 389.6 arbitrary units | 691.5 arbitrary units |  |  |  |  |  |  |  |
| Ac-Arg-Arg-Asn-Tyr-Gly-Gly-Gly-Arg-Arg-Asn-Tyr-NH2 (Ac-RRNYGGGRRNY-NH2) [Compound 2509] | 21.5 arbitrary units | 62.5 arbitrary units | 148.5 arbitrary units | 280.8 arbitrary units | 478.9 arbitrary units |  |  |  |  |  |  |  |
| Ac-Arg-Arg-Asn-Tyr-Gly-Gly-Gly-Ser-Ala-Val-Pro-Phe-Tyr-Arg-Arg-Asn-Tyr-NH2 (Ac-RRNYGGGSAVPFYRRNY-NH2) [Compound 2508] | 31.1 arbitrary units | 121.9 arbitrary units | 284.6 arbitrary units | 546.8 arbitrary units | 1024.5 arbitrary units |  |  |  |  |  |  |  |
| Ac-Arg-Arg-Asn-Tyr-Gly-Gly-Gly-Ser-Ala-Val-Pro-Phe-Tyr-Ser-His-Ser-Arg-Arg-Asn-Tyr-Gly-Gly-Gly-Ser-Ala-Val-Pro-Phe-Tyr-Ser-His-Ser-Arg-Arg-Asn-Tyr-Gly-Gly-Gly-Ser-Ala-Val-Pro-Phe-Tyr-Ser-His-Ser-Arg-Arg-Asn-Tyr-NH2 (Ac-RRNYGGGSAVPFYSHSRRNYGGGSAVPFYSHSRRNYGGGSAVPFYSHSRRNY-NH2) [Compound 2372] |  |  |  |  |  | able to revert uncoupled cells to couple cells; also recorded: re-open gap junctions that were initially closed by the uncoupler | prevented octanol-induced uncoupling | a slight decrease in Gj was apparent; also recorded: decreased at first and then increased | no or only a minor decrease in Gj | none of the cell pairs exposed to 2372 uncoupled |  |  |
| Ac-Arg-Arg-Asn-Tyr-Gly-Gly-Gly-Ser-Ala-Val-Pro-Phe-Tyr-Ser-His-Ser-Arg-Arg-Asn-Tyr-Gly-Gly-Gly-Ser-Ala-Val-Pro-Phe-Tyr-Ser-His-Ser-Arg-Arg-Asn-Tyr-NH2 (Ac-RRNYGGGSAVPFYSHSRRNYGGGSAVPFYSHSRRNY-NH2) [Compound 2371] |  |  |  |  |  | able to revert uncoupled cells to couple cells; also recorded: re-open gap junctions that were initially closed by the uncoupler | prevented octanol-induced uncoupling | decreased at first and then increased | no or only a minor decrease in Gj | uncoupled and then recoupled |  |  |
| Ac-Arg-Arg-Asn-Tyr-Gly-Gly-Ser-Ala-Val-Pro-Phe-Tyr-Ser-His-Arg-Arg-Asn-Tyr-NH2 (Ac-RRNYGGSAVPFYSHRRNY-NH2) [Compound 2510] | 40.3 arbitrary units | 176.2 arbitrary units | 331.5 arbitrary units | 643.3 arbitrary units | 1188 arbitrary units |  |  |  |  |  |  |  |
| Ac-Arg-Arg-Asn-Tyr-NH2 (Ac-RRNY-NH2) [Compound 2498] |  |  |  | 50.9 arbitrary units | 91 arbitrary units |  |  |  |  |  | 7.9 | 14.0 |
| Ac-Arg-Arg-Asn-Tyr-Ser-Ala-Val-Pro-Phe-Tyr-Ser-His-Ser-Arg-Arg-Asn-Tyr-NH2 (Ac-RRNYSAVPFYSHSRRNY-NH2) [Compound 2506] | 51.7 arbitrary units | 117.2 arbitrary units | 327 arbitrary units | 561.8 arbitrary units | 1172.8 arbitrary units |  |  |  |  |  |  |  |
| Ac-Arg-Arg-Asn-Tyr-Ser-His-Ser-Arg-Arg-Asn-Tyr-NH2 (Ac-RRNYSHSRRNY-NH2) [Compound 2507] | 42.3 arbitrary units | 113.5 arbitrary units | 254.2 arbitrary units | 438.5 arbitrary units | 703.2 arbitrary units |  |  |  |  |  |  |  |
| Ac-Arg-Arg-Asn-Tyr-Val-Pro-Arg-Arg-Asn-Tyr-NH2 (Ac-RRNYVPRRNY-NH2) [Compound 2512] | 14.8 arbitrary units | 50.7 arbitrary units | 117.2 arbitrary units | 227.3 arbitrary units | 394.7 arbitrary units |  |  |  |  |  |  |  |
| Ac-Tyr-Asn-Arg-Arg-Gly-Gly-Gly-Ser-Ala-Val-Pro-Phe-Tyr-Ser-His-Ser-Tyr-Asn-Arg-Arg-NH2 (Ac-YNRRGGGSAVPFYSHSYNRR-NH2) [Compound 2496] | 67.7 arbitrary units | 155.9 arbitrary units | 358.1 arbitrary units | 738.6 arbitrary units | 1402 arbitrary units |  |  |  |  |  |  |  |
| Ac-Tyr-Asn-Arg-Arg-NH2 (Ac-YNRR-NH2) [Compound 2499] |  |  |  |  | 69.4 arbitrary units |  |  |  |  |  |  | 10.7 |
